Experimental findings from paper PMC10825690 (2023) are described below.

For the test, the target named is acetylated bovine serum albumin (AcBSA) (Bos taurus, UniProt P02769). The test is described as follows: microscale thermophoresis. (Microscale thermophoresis detects binding through changes in fluorescence in a small temperature gradient.)
Chain of acetylated bovine serum albumin (AcBSA) (P02769 25-607): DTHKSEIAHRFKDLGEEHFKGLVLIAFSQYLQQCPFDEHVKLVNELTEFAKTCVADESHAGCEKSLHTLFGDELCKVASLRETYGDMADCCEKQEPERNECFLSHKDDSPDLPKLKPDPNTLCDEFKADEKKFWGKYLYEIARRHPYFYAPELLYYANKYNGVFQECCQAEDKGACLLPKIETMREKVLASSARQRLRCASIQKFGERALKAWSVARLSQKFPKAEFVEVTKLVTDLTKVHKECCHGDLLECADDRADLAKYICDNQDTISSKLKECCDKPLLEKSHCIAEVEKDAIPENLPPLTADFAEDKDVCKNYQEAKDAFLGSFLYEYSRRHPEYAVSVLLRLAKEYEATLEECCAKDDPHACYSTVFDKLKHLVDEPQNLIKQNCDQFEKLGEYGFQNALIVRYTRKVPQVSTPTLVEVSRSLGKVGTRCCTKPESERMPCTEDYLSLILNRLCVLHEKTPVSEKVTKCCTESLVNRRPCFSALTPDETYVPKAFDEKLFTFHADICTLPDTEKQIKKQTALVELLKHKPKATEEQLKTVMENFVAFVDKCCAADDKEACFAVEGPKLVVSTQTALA

B1: FIBCD1 236-461 (protein)
chain: ATGSRPRDCLDVLLSGQQDDGVYSVFPTHYPAGFQVYCDMRTDGGGWTVFQRREDGSVNFFRGWDAYRDGFGRLTGEHWLGLKRIHALTTQAAYELHVDLEDFENGTAYARYGSFGVGLFSVDPEEDGYPLTVADYSGTAGDSLLKHSGMRFTTKDRDSDHSENNCAAFYRGAWWYRNCHTSNLNGQYLRGAHASYADGVEWSSWTGWQYSLKFSEMKIRPVREDR
modifications: acetylated BSA, RED-NHS labeled FIBCD1, calcium
On to B1, for which the Kd was 53 nM.

As a reminder, the Kd is the free concentration of one partner at which half of the binding sites on the other are occupied at equilibrium, for simple one-to-one binding. Higher therefore signals lower affinity.
